Assay results: the DeepSol protein solubility set

experiment: soluble on expression in E. coli; label from the status in PepcDB or PDB records

Soluble on expression in E. coli, soluble:
MGHHHHHHKVTLPDLKWDFGALEPYISGQINELHYTKHHQTYVNGFNTAVDQFQELSDLLAKEPSPANARKMIAIQQNIKFHGGGFTNHCLFWENLAPESQGGGEPPTGALAKAIDEQFGSLDELIKLTNTKLAGVQGSGWAFIVKNLSNGGKLDVVQTYNQDTVTGPLVPLVAIDAWEHAYYLQYQNKKADYFKAIWNVVNWKEASRRFDAGKI, MRKNKLSFKEKAGAEQEECLCFCEGEASREAMFQAPIELPEGFVVDPAEAVANVTWNADSLSCVSDRCLIQTGPEPDEVGVQFAVRLQGTVTLLVSVSPVRNQYGQGDGAVSVIHNAEIDQVVYYSDESDDCPDISDITIENLVVVPPFYGSPLSVTGTIVLVPEPEPVYAFTANPNDQSVSVIDTNTDTVVTTIALPYNPAGIEITPDKSAVFVLHPNNNVISVIDYDTLTVTATILLDQPPRLIRFIPNHEFAYVFTGTAVYVIGIDTLTVDRSIPVEGYDVAIDPNGLFAYVLNFGIVQKVDLTTGEVTGTIERELIVSTIETNWPERYAYVLEQEFFFNYLTVIDLNTFTISSTQELEYEGEYRMFTSGAEVYLYDGFTGNLYSVSPNGAGVIGNVPQSATDYAFTPNGDFLYATRFIEQSIIVYNTDDYSEETVISLGVSPGAITILEHHHHHH, MQKRVTDEEIKERLGKIKSRIAVMSGKGGVGKSTVTALLAVHYARQGKKVGILDADFLGPSIPILFGLRNARIAVSAEGLEPVLTQKYGIKVMSMQFLLPKENTPVIWRGPLIAGMIREFLGRVAWGELDHLLIDLPPGTGDAPLTVMQDAKPTGVVVVSTPQELTAVIVEKAINMAEETNTSVLGLVENMSYFVCPNCGHKSYIFGEGKGESLAKKYNIGFFTSIPIEEELIKLADSGRIEEYEKDWFESAPFLEHHHHHH, MEMISNNLNWFVGVVEDRMDPLKLGRVRVRVVGLHPPQRAQGDVMGIPTEKLPWMSVIQPITSAAMSGIGGSVTGPVEGTRVYGHFLDKWKTNGIVLGTYGGIVREKPNRLEGFSDPTGQYPRRLGNDTNVLNQGGEVGYDSSSNVIQDSNLDTAINPDDRPLSEIPTDDNPNMSMAEMLRRDEGLRLKVYWDTEGYPTIGIGHLIMKQPVRDMAQINKVLSKQVGREITGNPGSITMEEATTLFERDLADMQRDIKSHSKVGPVWQAVNRSRQMALENMAFQMGVGGVAKFNTMLTAMLAGDWEKAYKAGRDSLWYQQTKGRASRVTMIILTGNLESYGVEVKTPARSLSAMAATVAKSSDPADPPIPNDSRILFKEPVSSYKGEYPYVHTMETESGHIQEFDDTPGQERYRLVHPTGTYEEVSPSGRRTRKTVDNLYDITNADGNFLVAGDKKTNVGGSEIYYNMDNRLHQIDGSNTIFVRGDETKTVEGNGTILVKGNVTIIVEGNADITVKGDATTLVEGNQTNTVNGNLSWKVAGTVDWDVGGDWTEKMASMSSISSGQYTIDGSRIDIGSVDHHHHHH, MAHHHHHHMSLADEVPREWASSIRPFLQRADEFQERVPVVAYFLRTHAVYLAMKMWRKEDGPGKAFIVKLLDTLESEKKRLEQELADVDGRVLLTQYALRIFSRADDEERSDGVVANMNLVRLFFTASLLFEATAQFTDDGTLDPIATEKRDYARYIAVEMKKAMDKGVPYVSPNRTGGMVESNKEHEGESTGGGGFSTNFVQSQQPGYGQWSAQYVTPQPPPPSHEPPETPMWSGPESTNTSSTQQQQQSTPLFQTTAQPNNSNDNSNIAAAVSGVAAPKGPTMDAIIEAQNYAKQAVSALQFYDHEVACKMLRSALDLLAQR, MIGYLFGNRVLVDDKELPLIEAYYLLDKGELEVYEDDKKLSKEEFLKKCLTYDERFLIRYKAYKELRDKGYTLGTALKFGADFRVYDIGVIPKKGKRSEREHSKWVLYPVSKDETFDFYEFASKNRVAHSTRKKMLMGIVSDKIEFIEVSWKKP, MASYAELFDIGEDFAAFVGHGLATEQGAVARFRQKLESNGLPSALTERLQRIERRYRLLVAGEMWCPDCQINLAALDFAQRLQPNIELAIISKGRAEDDLRQRLALERIAIPLVLVLDEEFNLLGRFVERPQAVLDGGPQALAAYKAGDYLEHAIGDVLAIIEGAAR, MEDENILRNAVNLQVLKFHYPEIESIIDIASHVAVYQFDVGSQKWLKTSIEGTFFLVKDQRARVGYVILNRNSPENLYLFINHPSNVHLVDRYLIHRTENQHVVGLWMFDPNDMSRIFNIVKESLLR, MSLIPIVASSPSPLISGDGDDALRQIGLLHERSAPLGAMMIDHGPDIGERSPVFSMTTIDGVPVTVGRAVSPGRPSLLMFTGPSCPICQKLLPIIRSVAATEGADVILISDGTQAEHREFLRNHPLDGEHYVVSAEIGMRYQVSKVPYGVLLDKDGVIQAKGLCNTREHVESLFETTRVGHSTLQNFLKHGVEDASKHEGHHHHHH, MSLSAIPPDAIDDESRDTLTGLAGIASASDWLDRNGAKGFVHAMLLGLHRFRSVNLAYGQSAGDIALVELAQRIRIFADEEIGGDTLVARVGGGDFLVASAGKVSRERWQWLAEALARRVSRVLPLRGEELQLAPRIALLRGQPGEGGPALLDRLDQALTTLQQQPARRLQWADGSHLARGRSAARLEADMIGAMARDEIGIVFQPQYAVAGGDIVGVEALARWDHPQLGRIGAETLFALAERGDHVAQVSRHIAGRAMWQAVEWKPVIPLSLNITAEDLGDDRLVEDCRLLLAQTGYPPSSLTVEVTEHALIADFERSAAALEQLARLGVRIALDDFGAGYANFRTLKALPVNTLKLDASLVRDIDRDPRDRAILRAIVAMARALGQKVVVEGIERESQLQVLAAEGCDAFQGFLRSGPIPADQIAALSREGHHHHHH, FLDKPTLLSPEELKAASRGNGEYALYYEGRNGWWQYDERTSRELEDAFSKGKRTSEMLIAGFLYVADLENMGQYRRNEHGRRRKIKRDIIDIPKKGV

Soluble on expression in E. coli, not soluble:
QVPENNGYAGDKPLKTYIHDTVKGDLYYTAGSSYYSGKAYPGDTYKVNHNFDLPEGATIKLARLYNYWTWSSEGMEGRNPEMKLSFDGQELEPDREYSDRKGWGSYDYPSGTWAYDVSSCITGSGTFTTEIENTGPDASCVCIEGVGLLIVYEDPDGRNIEYWINEGADELNSQMDENGSPLYYTAPNQTICEMLRPALQFPIRSATLWTITQSGNWENNTLIVNDKKFTGICDGKPYPDLEIDKRNVTDCLKAGENIILFQASGDYVISSGSFLVVEKDLLAEESKSSTEEASEKSEETGSTPETSGTESKKAPGFGFVFAPALLTGRKLVSGLRDK, VGEVNLSARGNFTFARNEILEYDQVPQVYPWLEKKGTRLNSWKLYIADGLYTADDFNITGEGLNRQYELKPGVVSGLSSGVRPGDIKYKDLNGDGKIDSNDQMEDVGNPSVPEIVYGFGLNAEWKGAYVGIFFQGSGNTSTVLGASSNGAFFPFQWGVEESAVRSEVANRWTEQNPSQNVMFPRMHSTNYDNNTAASTWWLRNASFLRLKNIEVGYNFKEKTLKKIGIQALRVYLQGNNLCVWDDIKMWDPELGNTNGGFSYPLSRTFTFGLDFTF, MSVQSITESNQPPVICLMGPTASGKTALAMALKDALPCDIVSVDSALIYRDMDIGTAKPTKSELVQYPHRLIDLRDASESYSAADFCRDALVEIAEIRSNGRIPLLVGGTMMYFKSLIEGISPLPTANPEIRQAIEAEALSKGWQAMHDQLAEIDPVSAERIHPNDPQRITRALEVYRLTSNTLTQLTQIKGAKLAGDVLQLAITPRERSTLHERIALRYQQMIDLGFEQEVIKLKSRDDLHQDLPSIRCVGYRQMWQHLEGEFDHDEMIFRGVCATRQLAKRQLTWLRNWPDLHWLTTDDKTNLAQVLSLLEAKH, GPGSMALVADVPPPTATSMAKLFQESSFDPVTTFEAVWLPPRVPAAPPTAGASEPVPFAAVVDVLADISATGSRLECLKQLTFLLLAVIERCPEDLVPVMYLVINKHAPQHEGVELGIGDAVLVKAVAECCGMTETRAKEEYRQSGDLAEIAQMHKQKQGTLMKPKPLSARSVFKTYKEIAMMSGRDVMRRRSDLIKGLLRDAQGPEVNLIVRGLQQKMRIGLAEPSALAAVGYAFALHFLGGAQMHKMDEVQLQTLLNTGADSLARIFYEVPSLDVVLSAVLANGFMTLVPGSSIAKQYAKDLSIRPGLPVKPQLAYPTSSITVILDRLQGKKFTSEYKYDGERAQIHYDKDKGFHIFSRNSETHTGKYPDVISMLPKVFDPVEVQSFILDSEVVAVHSETGALQAFQVLQHRGRKNIAEEDVSIPVCVFVFDILYFNGEPQLNKTLQQRRELLWRCIHPLPAKLSFATHLDSEKVEDVQTFLERSIADGCEGLMVKTLEEEANYTPAKRSHYWLKLKKDYMDGVTDTLDLVPIAAFYGKGKRTGVFGGFLLACYDPKADEYQSICKIGTGFQDEELEKLTQSLKPFVVDEKPRYYRAGGEEPDVWLTEAQVWEVKAADLSVSPVHQAAVGLVDPDKGIALRFPRYLRQREDKKPADATNARQVADMYKAQSLAAEHDANGDAE, MGSDKIHHHHHHMERLPTTPHDAVFRQMLMQKEVARDFLAIHMPEDFLAICDLDSLKLESGSFVEDNLRSRYSDILYSLHTQHGPGYVYALIEHQSKSDRLMAFRLMRYAIAAMQRHLDAGHDTLPLVVPILFYHGPESPWPYSLNWHNMFVKPDMAKALYSRDFALVDLTTMPDNQLLQHRRIAMLELLQKHIRQRDLSELLDPLITLLTQDHLTDAQLSVLINYMLKAGNAAEPGALIRQLAQGAPQYKEQLMTIAEWLEEKGRTEGLQKGLQKGLEQGLAQGREAEARAIARKMLANGLEPGLIASVTGITPEELSTLSH, MSLNGQSEYKGKLDYIIVLGAGLRGKHMLGTQYERVKKAAEYVKENPDVKIVVSGGKGNGEDISEAEAMKQYFLNKGFKNDSIIMEDKSKNTFENLRNSKKILEKISNKKEIRVGVVTSSYHITRAKLLGKRVGLKLYAIPAPINKLLLLQSYTREFFAFYKSIIFDRGEGHHHHHH, AHHHHHHGSKVEKGDVIRLHYTGKVKETGEIFDTTYEDVAKEARIYNPNGIYGPVPIAVGAGHVLPGLDKRLIGLEVKKKYVIEVPPEEGFGLRDPGKIKIIPLGKFRKSGIIPYPGLEIEVETENGRKMRGRVLTVSGGRVRVDFNHPLAGKTLVYEVEVVEKIEDPIEKIKALIELRLPMIDKDKVIIEISEKDVKLNFKDVDIDPKTLILGEILLESDLKFIGYEKVEFEPTIEELLKPKSAEEQESPNEEQQEESESKAEES, KEYFSVWMEDIIYFENSGRNVKIMTIDGTDLFVGNIKDIAKEVLPYGFIQISQSIIVNYNFVSKYSREEIILINKEKIAIPKNKRNGVKEQFL, MGSDKIHHHHHHMTKIESLGSVKRKAVNISPEDLIKTEFLQPGNNFPLVIKPNVKGVDLQNWAKNNREFLKAELLKYGAILFRDFKVKSIEEFEQIIAAICGEAMEYRYRASPRTQVGGRIYTSTDYPAEQSIFPHNEHAYSPTFPLKIFFFCMSPAAQGGETPIGSCRKVFERIHPDIRDRFIQKKVMYMRNFGDGFGLPWQTVFQTTDKTKVEEYCKINGIEVEWKADNRLRTRQVGPVVLKHPQTGEMVWFNHATFFHVSTLESTIRDSLLTNLPEEDLPTNTYYGDGSAIEPSVLAELRAAYQQEMVTFSWEKGHVLMLDNMLSIHARQPFVPPRKILVGMAEAHTPIPLG, MRLCSVALLLFTVAYVKSAIDINVPSTLYIKEGDTGTIGLPVSANYRREVHNPKGTMDEQLYRVCNGKNKTTCGFWEDVKTKKKVKSGVTTYNKNKKALVIKKMLVSDFGNYMTGNKKKSRYVQQLVSLGK
